Assay results: patent publication US20200129532A1 (SALK INSTITUTE FOR BIOLOGICAL STUDIES, published 2020)

Target: endogenous ARID2 (293T cells) (UniProt Q68CP9 2-1835, limits assumed)
Assay: immunoprecipitation of endogenous BAF/PBAF components in 293T cells
Protocol: For other immunoprecipitations, primary antibodies were incubated with lysates for 2 hr followed by Protein A magnetic beads (Life Technologies, 10001D).

Sequence of endogenous ARID2 (293T cells) (Q68CP9 2-1835 limits assumed): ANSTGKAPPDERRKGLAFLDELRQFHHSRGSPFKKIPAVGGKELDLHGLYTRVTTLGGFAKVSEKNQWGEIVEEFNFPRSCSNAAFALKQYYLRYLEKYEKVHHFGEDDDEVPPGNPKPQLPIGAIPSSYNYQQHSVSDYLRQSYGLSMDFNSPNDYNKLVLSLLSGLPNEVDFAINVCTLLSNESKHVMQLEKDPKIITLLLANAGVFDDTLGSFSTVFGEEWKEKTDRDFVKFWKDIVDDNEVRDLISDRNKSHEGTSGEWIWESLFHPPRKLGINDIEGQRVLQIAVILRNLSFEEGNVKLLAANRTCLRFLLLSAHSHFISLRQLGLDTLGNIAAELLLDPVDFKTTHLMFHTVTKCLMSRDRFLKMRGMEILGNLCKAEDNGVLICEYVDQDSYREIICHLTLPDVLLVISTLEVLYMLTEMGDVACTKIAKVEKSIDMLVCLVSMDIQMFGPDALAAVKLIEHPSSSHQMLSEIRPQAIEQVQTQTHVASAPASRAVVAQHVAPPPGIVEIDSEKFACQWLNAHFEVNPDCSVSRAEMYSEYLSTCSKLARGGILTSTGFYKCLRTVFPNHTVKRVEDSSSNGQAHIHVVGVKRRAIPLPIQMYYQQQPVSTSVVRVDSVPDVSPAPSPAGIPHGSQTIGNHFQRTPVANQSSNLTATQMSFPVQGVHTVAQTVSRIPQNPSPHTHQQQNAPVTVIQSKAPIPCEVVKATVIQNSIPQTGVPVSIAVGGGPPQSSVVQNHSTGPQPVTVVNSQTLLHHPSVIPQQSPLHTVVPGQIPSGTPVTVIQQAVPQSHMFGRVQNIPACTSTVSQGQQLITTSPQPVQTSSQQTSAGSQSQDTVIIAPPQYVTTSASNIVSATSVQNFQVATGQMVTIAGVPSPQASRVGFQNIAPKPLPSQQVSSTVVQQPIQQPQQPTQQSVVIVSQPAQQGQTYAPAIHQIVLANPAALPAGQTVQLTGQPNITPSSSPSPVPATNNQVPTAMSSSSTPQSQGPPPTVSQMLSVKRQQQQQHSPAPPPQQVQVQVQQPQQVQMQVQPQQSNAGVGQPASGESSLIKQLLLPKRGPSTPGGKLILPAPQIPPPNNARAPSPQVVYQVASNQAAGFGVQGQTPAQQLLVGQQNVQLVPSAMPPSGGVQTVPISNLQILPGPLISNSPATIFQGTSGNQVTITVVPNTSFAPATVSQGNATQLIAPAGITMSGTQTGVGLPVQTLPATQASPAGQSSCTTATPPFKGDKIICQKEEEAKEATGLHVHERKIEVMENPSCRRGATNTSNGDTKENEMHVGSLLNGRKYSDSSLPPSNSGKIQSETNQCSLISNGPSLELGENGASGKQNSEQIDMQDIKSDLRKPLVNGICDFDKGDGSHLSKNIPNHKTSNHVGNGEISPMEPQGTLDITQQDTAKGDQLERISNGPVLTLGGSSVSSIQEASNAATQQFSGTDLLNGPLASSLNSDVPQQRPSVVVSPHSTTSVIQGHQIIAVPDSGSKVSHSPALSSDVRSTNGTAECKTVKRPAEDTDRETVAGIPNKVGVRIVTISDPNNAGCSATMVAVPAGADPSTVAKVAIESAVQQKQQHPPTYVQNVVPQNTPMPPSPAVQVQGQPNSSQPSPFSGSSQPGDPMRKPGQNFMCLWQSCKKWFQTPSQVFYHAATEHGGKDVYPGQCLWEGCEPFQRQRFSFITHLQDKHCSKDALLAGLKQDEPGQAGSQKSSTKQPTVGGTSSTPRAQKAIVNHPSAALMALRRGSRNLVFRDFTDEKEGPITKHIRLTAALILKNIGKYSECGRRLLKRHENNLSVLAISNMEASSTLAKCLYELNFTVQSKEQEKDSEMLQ

B1: endogenous bromodomain-containing protein 9 (BRD9) (other, human, UniProt Q9H8M2 1-597, looked up)
chain: MGKKHKKHKAEWRSSYEDYADKPLEKPLKLVLKVGGSEVTELSGSGHDSSYYDDRSDHERERHKEKKKKKKKKSEKEKHLDDEERRKRKEEKKRKREREHCDTEGEADDFDPGKKVEVEPPPDRPVRACRTQPAENESTPIQQLLEHFLRQLQRKDPHGFFAFPVTDAIAPGYSMIIKHPMDFGTMKDKIVANEYKSVTEFKADFKLMCDNAMTYNRPDTVYYKLAKKILHAGFKMMSKQAALLGNEDTAVEEPVPEVVPVQVETAKKSKKPSREVISCMFEPEGNACSLTDSTAEEHVLALVEHAADEARDRINRFLPGGKMGYLKRNGDGSLLYSVVNTAEPDADEEETHPVDLSSLSSKLLPGFTTLGFKDERRNKVTFLSSATTALSMQNNSVFGDLKSDEMELLYSAYGDETGVQCALSLQEFVKDAGSYSKKVVDDLLDQITGGDHSRTLFQLKQRRNVPMKPPDEAKVGDTLGDSSSSVLEFMSMKSYPDVSVDISMLSSLGKVKKELDPDDSHLNLDETTKLLQDLHEAQAERGGSRPSSNLSSLSNASERDQHHLGSPSRLSVGEQPDVTHDPYEFLQSPEPAASAKT
notes: Endogenous protein in cell lysates; also called bromodomain-containing factor 9
**Q.** Does B1 bind?
**A.** Result: no binding
